This passage reports Kd results from publication doi:10.1101/2025.01.09.632085.

This series has as its target thrombin (UniProt P00734;P00734 328-363;364-622). Kind of series: BLI. On the technique in general: BLI is a label-free optical method that tracks binding on a fibre tip over time.

With GGTTGGTGTGGTTGG (structured_DNA) [HD1], the affinity, expressed as Kd, was 32 ± 4 nM.
